Results reported in patent US20210277101A1 (UNIVERSIT LAVAL, published 2021).

What was measured:
[1] = target: T1, S100A9 C-term (C) peptide (human); assay: dot blot on PVDF
T1 construct: also called C-terminal peptide
T1 peptide: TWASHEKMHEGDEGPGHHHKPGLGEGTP
Procedure: FIG. 7 illustrates that 6B4 recognizes the C-terminal peptide of S100A9. Recombinant S100A8 and S100A9 (1 μg), PBS1×, N-terminal (N), Hinge (H) and C-terminal (C) peptides (10 and 50 μg) were put onto PVDF membrane to perform dot blot analysis using the mAb 6B4.
A dot blot was first performed to verify the ability of the mAb 6B4 to recognize these regions of S100A9. Briefly, 1 μg of recombinant S100A9 or S100A8 (negative control), and 10 and 50 μg of S100A9 peptides were deposited on PVDF membrane. The dried membrane was then blocked with TBS/0.1% Tween/milk 5% 30 min at room temperature under gentle agitation and labelled with 1 μg/ml of 6B4 mAb for 1 hr at RT. The membrane was extensively washed with TBS/0.1% Tween, then labelled with goat anti-mouse ( 1/20 000) in blocking buffer for 1 hr at RT under gentle agitation. The membrane was then extensively washed and visualized by enhanced chemiluminescence (ECL) as described by the manufacturer (PerkinElmer).

S100A9 peptide C7 = target: T2, S100A9 peptide C7 (human); assay: direct ELISA on coated peptides
T2 construct: also called 10 last amino acid of the C-terminal region of S100A9
T2 peptide: HKPGLGEGTP

S100A9 peptide C7a = target: T3, S100A9 peptide C7a (human); assay: direct ELISA on coated peptides
T3 peptide: PGLGEGTP

binding result [1]: binds
binding result (S100A9 peptide C7): binds
binding result (S100A9 peptide C7a): binds
B1: mouse monoclonal antibody 6B4 (antibody, IgG1, V domains shown)
VH: QVQLQQPGSELVRPGASVKLSCKASGYTFTTYWIHWVRQRPGQGLEWIGNIYPGGDSSNYDEKVKSRATLTVDTSSSTAYMQLSSLTSEDSAVYYCSRWGIWGQGTLVTVSA
VL: ENVLTQSPAIMSASPGEKVTMTCSARSSVSYVHWYQQKSNTSPKLWIYDTSKLASGVPGRFSGSGSGNSYSLTISSMEAEDVATYYCFQGSGYPLTFGAGTKLELK
notes: also called mAb 6B4; 6B4 mAb
